Test results as given in patent publication US20120009123A1, “Albumin binding peptide-mediated disease targeting” (ABRAXIS BIOSCIENCE, LLC, priority 2008, published 2012).
≈ marks a conversion by molar mass, not a printed value.

Columns and labels:
[1] = target: human serum albumin (HSA) (Homo sapiens, UniProt P02768); experiment: peptide phage display library screening (panning); format: binding; settings: for assessment of sequence after fourth round of panning: about 100 plaques sequenced, FIG. 11
Experimental: A commercial peptide phage display library (12-mer peptides in M13) was screened for peptides which bind to human serum albumin (HSA) (see FIG. 10). Four rounds of panning were completed as follows:
1. The phage library was screened by coating a 100 ug/ml HSA solution onto the wells of 12-well plate and exposing the wells to 1-2×1011 pfu phage. Bound phage were eluted with a 0.2M Glycine, pH2.2 buffer to yield 15×10^5 pfu/ml (which became 5×1013 pfu/ml after amplification);
2. The second panning was eluted with a 0.2M Glycine, pH 2.2 buffer to yield 12×10^6 pfu/ml (8×1013 pfu/ml after amplification);
3. The third panning was eluted with 250 ug/ml HSA for 1 hr to yield 5×10^5 pfu/ml (2×1012 pfu/ml after amplification); and
4. a fourth panning was eluted with a 0.2M Glycine, pH2.2 buffer to yield 14×10^8 pfu/ml. After the fourth round of panning, about 100 plaques were selected, amplified and sequenced.

[2] = test system: squamous cervix (A431) line; experiment: cells; settings: Homo sapiens, A-431, read-out: IC50, in vitro cytotoxicity
[3] = target: binding of albumin to SPARC (Homo sapiens, UniProt P02768); experiment: competitive binding assays with SPARC C-terminal cysteine-poor domain peptides; settings: general statement in the description
Experimental: The 15 mer SPARC C-terminal, cysteine-poor domain-spanning peptides were used in competitive binding assays. Specifically, the SPARC peptides were immobilized onto PVDF-attached 96 well plate in an overnight incubation at 4° C. (5 μg/well). The next day the plate was washed with DPBS and blocked for an hour with 5% Non-fat dry milk in DPBS. Next, 100 μl of DPBS was added to each well except the wells in first row. A vial of Alexa 488-BSA (5 mg) was dissolved with 1.2 ml of 25% HSA. Then, 100 μl of BSA-HSA was mixed with 100 μl of SPARC peptides prepared as 4 mg/ml in DPBS (resulting in a final concentration of the Alexa 488-BSA and peptides in first row of about 200 ug/well each). Serial dilution was made down to each column. The plate was incubated for an hour in a dark place, was washed, and the fluorescence was read. […] To further localize the SPARC albumin binding site SPARC sub-fragments were made (FIG. 8). In particular, peptides #103 ([…]) (SEQ ID NO: 66) and #104 ([…]) are subfragments of the sole active peptide, peptide #47.

human serum albumin = target: T1, human serum albumin (human, UniProt P02768 25-609); experiment: M13 12-mer phage display, four rounds of panning on coated HSA, sequencing of about 100 plaques
T1 construct: also called HSA; human albumin

albumin binding to SPARC = target: T2, albumin binding to SPARC (Homo sapiens, UniProt P09486); experiment: follow-up competitive studies of albumin binding to SPARC
T2 construct: Full length, wild-type SPARC (“WT”)
T2 sequence (P09486 18-303): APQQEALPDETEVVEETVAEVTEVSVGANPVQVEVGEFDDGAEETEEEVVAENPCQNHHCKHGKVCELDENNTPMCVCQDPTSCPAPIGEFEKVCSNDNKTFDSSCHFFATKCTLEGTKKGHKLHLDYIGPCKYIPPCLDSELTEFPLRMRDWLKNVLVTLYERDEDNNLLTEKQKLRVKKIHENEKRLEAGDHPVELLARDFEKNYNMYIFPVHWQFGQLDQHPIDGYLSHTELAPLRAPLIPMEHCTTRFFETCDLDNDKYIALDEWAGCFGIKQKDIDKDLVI

[4] = test system: human serum albumin spiked with Alexa fluor 488 conjugated bovine serum albumin; experiment: SPARC-albumin interaction: SPARC immobilized on PVDF, fluorescent albumin binding; settings: for albumin binding: polypeptide immobilized 5 μg/well on PVDF, FIG. 2
Experimental: Full length, wild-type SPARC (“WT”), a SPARC deletion mutant in which the glutamine at residue 3 is deleted (“Q3”) or SPARC treated with Cathepsin K were immobilized on PVDF membrane and exposed to decreasing concentrations of human serum albumin spiked with Alexa fluor 488 conjugated bovine serum albumin.
In the initial experiment, full length, wild-type SPARC and “Q3” mutant SPARC polypeptides were immobilized onto PVDF-attached 96 well plate by overnight at 4° C. incubation (5 μg/well). The next day the plate was washed with DPBS and blocked for an hour with 5% non-fat dry milk in DPBS. 100 μl of DPBS was added to each well. A vial of Alexa 488-BSA (5 mg) was dissolved with 1.2 ml of 25% Human Serum Albumin (“HSA”) and 100 μl of BSA-HSA mix was added to wells of first row of plate (resulting in a final concentration of Alexa 488-BSA in first row becomes about 200 μg/well). Serial dilutions were made down each column and the plate was incubated for an hour in a dark place. After 1 hr incubation, the membrane was washed with PBS and the amount of albumin remained quantified by fluorescent plate reader.
Thirty μg of recombinant human (“rh”) SPARC was incubated with 0.4 μg of Cathepsin K for 10, 30, 60 and 120 minutes. […] Accordingly, overlapping 15 mer peptides were prepared which spanned the SPARC C-terminal, cysteine-poor domain (FIG. 6).

Molecule: KNHGATRTTRAS [SEQ ID NO: 2, called Peptide 47 in b190]
- assessment of sequence after fourth round of panning [1]: probably be a true ligand
- binding to human albumin ([1]; general statement in the description): binds human albumin with great avidity

Molecule: CC(=O)O[C@H]1C(=O)[C@@]2(C)[C@H]([C@H](OC(=O)c3ccccc3)[C@]3(O)C[C@H](OC(=O)[C@H](O)[C@@H](NC(=O)c4ccccc4)c4ccccc4)C(C)=C1C3(C)C)[C@]1(OC(C)=O)CO[C@@H]1C[C@@H]2O [TAX]
- IC50 [2]: 0.012 µg/mL (≈ 0.0141 µM)

Molecule: WPHHHHTRLSTV
- assessment of sequence after fourth round of panning [1]: nonspecific binding

Molecule: MYIFPVHWQFGQLDQ [peptide #47, 15 mer, amino acids 209-223 of the human SPARC protein]
- binding to human albumin [3]: binds human albumin with great avidity

Molecule: KNHGATRTTRAS [KNHGATRTTRAS (Peptide 47; SEQ ID NO: 2)]
- binding result (human serum albumin): binds

B1: SPARC: Secreted Protein, Acidic, Rich in Cysteines; full length, wild-type, 303 amino acid glycoprotein (protein)
chain: APQQEALPDETEVVEETVAEVTEVSVGANPVQVEVGEFDDGAEETEEEVVAENPCQNHHCKHGKVCELDENNTPMCVCQDPTSCPAPIGEFEKVCSNDNKTFDSSCHFFATKCTLEGTKKGHKLHLDYIGPCKYIPPCLDSELTEFPLRMRDWLKNVLVTLYERDEDNNLLTEKQKLRVKKIHENEKRLEAGDHPVELLARDFEKNYNMYIFPVHWQFGQLDQHPIDGYLSHTELAPLRAPLIPMEHCTTRFFETCDLDNDKYIALDEWAGCFGIKQKDIDKDLVI
- IC50 of albumin binding to SPARC (albumin binding to SPARC): 5%
- albumin binding after cathepsin K digest ([4]; cathepsin K digest 60 min, FIG. 5): obliterated
- albumin binding [4]: bind albumin

B2: Q3: SPARC deletion mutant in which the glutamine at residue 3 is deleted (protein)
chain: APQEALPDETEVVEETVAEVTEVSVGANPVQVEVGEFDDGAEETEEEVVAENPCQNHHCKHGKVCELDENNTPMCVCQDPTSCPAPIGEFEKVCSNDNKTFDSSCHFFATKCTLEGTKKGHKLHLDYIGPCKYIPPCLDSELTEFPLRMRDWLKNVLVTLYERDEDNNLLTEKQKLRVKKIHENEKRLEAGDHPVELLARDFEKNYNMYIFPVHWQFGQLDQHPIDGYLSHTELAPLRAPLIPMEHCTTRFFETCDLDNDKYIALDEWAGCFGIKQKDIDKDLVI
- albumin binding [4]: bind albumin
